From PMC10458775, “A Combined Plasmonic and Electrochemical Aptasensor Based on Gold Nanopit Arrays for the Detection of Human Serum Albumin”

Target: human serum albumin (HSA) (Homo sapiens, UniProt P02768 25-609)
Test: alternating current voltammetry (electrochemical aptasensor); gold nanopit array with 6-MCH; HSA up to 600 uM; LOD 0.08 nM (not a Kd); 10 mM Tris, 150 mM NaCl, 5 mM KCl, pH 7.4, room temperature; 30 min HSA incubation; aptamer immobilized in 10 mM Tris, 1.5 M NaCl, 1 mM MgCl2, pH 7.4
Conditions: label: 5' ferrocene

human serum albumin (HSA), sequence (P02768 25-609): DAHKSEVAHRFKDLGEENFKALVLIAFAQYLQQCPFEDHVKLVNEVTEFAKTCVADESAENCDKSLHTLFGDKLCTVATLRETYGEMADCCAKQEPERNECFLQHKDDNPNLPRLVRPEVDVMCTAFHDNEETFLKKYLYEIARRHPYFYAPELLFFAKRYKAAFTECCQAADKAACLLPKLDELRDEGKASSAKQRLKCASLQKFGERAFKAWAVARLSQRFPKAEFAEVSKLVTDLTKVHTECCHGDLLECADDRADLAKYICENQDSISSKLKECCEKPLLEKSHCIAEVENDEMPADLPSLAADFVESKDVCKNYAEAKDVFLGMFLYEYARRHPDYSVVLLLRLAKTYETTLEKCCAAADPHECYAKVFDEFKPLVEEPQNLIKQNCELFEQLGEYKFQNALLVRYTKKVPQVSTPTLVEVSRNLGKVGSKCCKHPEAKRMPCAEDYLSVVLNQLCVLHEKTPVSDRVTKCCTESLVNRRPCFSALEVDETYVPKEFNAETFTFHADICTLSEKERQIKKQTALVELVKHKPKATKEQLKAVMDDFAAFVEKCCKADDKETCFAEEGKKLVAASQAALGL

B1: HSA aptamer (ssDNA)
DNA: GTCTCAGCTACCTTACCGTATGTGGCCCAAAGCGTCTGGATGGCTATGAA
modifications: 3' (CH2)6-SH thiol (disulfide reduced with TCEP), immobilized on gold
binding result: binds
